Target: T1, human recombinant RAGE-Fc Chimera (human, UniProt Q15109 23-342)
T1 construct: RAGE (receptor for advanced glycation end products), human; also called RAGE receptor; immobilized RAGE; source: bought: R&D Systems
Test: SPR; Biacore T100; about 1,000 RU of RAGE-Fc immobilised on a CM5 chip by amine coupling; S100A4 0.625-5 µM passed over at 15 µL/min, 60 s contact time; regeneration with 50 mM NaOH
Details: both partners purified

T1 sequence (Q15109 23-342, change not shown): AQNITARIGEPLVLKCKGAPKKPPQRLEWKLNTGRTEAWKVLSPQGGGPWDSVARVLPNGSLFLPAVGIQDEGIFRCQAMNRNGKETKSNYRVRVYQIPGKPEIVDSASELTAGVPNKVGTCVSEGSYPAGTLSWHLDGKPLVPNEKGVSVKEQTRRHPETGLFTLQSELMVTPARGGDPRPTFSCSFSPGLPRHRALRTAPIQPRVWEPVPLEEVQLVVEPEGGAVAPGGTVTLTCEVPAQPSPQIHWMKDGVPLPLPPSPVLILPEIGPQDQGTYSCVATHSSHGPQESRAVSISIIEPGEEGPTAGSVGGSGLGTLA

- binding result: binds
B1: human recombinant S100A4 (natural protein)
chain: not shown
notes: S100A4, human; The His tag is inferred, and its removal is not mentioned; also called S100A4 fusion protein

Reference: article PMC3762817, “Therapeutic Targeting of Tumor Growth and Angiogenesis with a Novel Anti-S100A4 Monoclonal Antibody” (PLoS ONE, 2013)
